The assay addresses GST-Sir3^SaID (S. cerevisiae, UniProt P06701 531-723). In words: pull-down.

Chain of GST-Sir3^SaID (P06701 531-723): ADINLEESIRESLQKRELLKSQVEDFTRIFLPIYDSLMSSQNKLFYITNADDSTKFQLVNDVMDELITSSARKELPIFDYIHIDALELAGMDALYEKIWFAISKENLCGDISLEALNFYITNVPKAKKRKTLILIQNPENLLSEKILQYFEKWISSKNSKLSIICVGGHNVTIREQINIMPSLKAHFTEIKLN

B1: Sae2^C (purified) (domain or fragment, S. cerevisiae, UniProt P46946 173-345, looked up)
chain: ENPESTSPNLYKNVKDNFLFDFNTNPLTKRAWILEDFRPNEDIAPVKRGRRKLERFYAQVGKPEDSKHRSLSVVIESQNSDYEFAFDNLRNRSKSPPGFGRLDFPSTQEGNEDKKKSQEIIRRKTKYRFLMASNNKIPPYEREYVFKREQLNQIVDDGCFFWSDKLLQIYARC
Consider B1, for which the binding result is recorded as “binds”.

These data come from article doi:10.1101/2021.05.26.445723 (bioRxiv, 2021).
